# T1: GFRAL ECD-Fc (GFRAL extracellular domain, human IgG1 Fc, 6xHis-tag and Avi-tag) (human, UniProt Q6UXV0 19-351)
# T1 construct: The recombinant signal peptide is left out; also called GFRAL extracellular domain (ECD)-Fc fusion; not shown: human IgG1 Fc; 6xHis-tag and Avi-tag at the C-terminus
# T1 sequence: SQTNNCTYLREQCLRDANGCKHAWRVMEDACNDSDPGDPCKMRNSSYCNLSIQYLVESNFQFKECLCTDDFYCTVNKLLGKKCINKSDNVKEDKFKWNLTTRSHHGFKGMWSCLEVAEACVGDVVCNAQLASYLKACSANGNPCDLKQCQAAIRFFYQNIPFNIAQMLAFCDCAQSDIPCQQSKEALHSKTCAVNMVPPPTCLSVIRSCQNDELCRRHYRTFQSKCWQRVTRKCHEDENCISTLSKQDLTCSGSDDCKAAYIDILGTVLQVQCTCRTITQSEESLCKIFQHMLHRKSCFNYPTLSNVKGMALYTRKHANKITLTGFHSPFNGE
# T2: Human GFRAL ECD-Fc (human GFRAL extracellular domain fused to human IgG1 Fc with 6xHis-tag) (human, UniProt Q6UXV0 19-351)
# T2 construct: not shown: Human IgG1 Fc, any junction and the C-terminal 6xHis
# T2 sequence: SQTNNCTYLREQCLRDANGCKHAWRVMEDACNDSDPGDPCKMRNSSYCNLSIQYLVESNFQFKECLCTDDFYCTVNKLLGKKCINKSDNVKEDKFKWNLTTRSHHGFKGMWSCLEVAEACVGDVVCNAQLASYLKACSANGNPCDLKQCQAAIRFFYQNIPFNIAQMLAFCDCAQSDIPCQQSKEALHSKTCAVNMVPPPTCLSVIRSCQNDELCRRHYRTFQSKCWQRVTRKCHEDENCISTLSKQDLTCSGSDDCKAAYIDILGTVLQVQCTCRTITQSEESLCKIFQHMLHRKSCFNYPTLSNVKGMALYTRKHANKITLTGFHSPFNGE
# B1: FlagTag-GDF15, homodimer (ligand)
# chain: EFDYKDDDDKARNGDHCPLGPGRCCRLHTVRASLEDLGWADWVLSPREVQVTMCIGACPSQFRAANMHAQIKTSLHRLKPDTVPAPCCVPASYNPMVLIQKTDTGVSLQTYDDLLAKDCHCI
# notes: it is counted on the native full length protein; also called non-fusion GDF15; mature GDF15 homodimer
# B2: HSA-GDF15 (Example 7; linker SEQ ID NO:26) (ligand, not shown: large carriers; small tags and cut ends)
# chain: ARNGDHCPLGPGRCCRLHTVRASLEDLGWADWVLSPREVQVTMCIGACPSQFRAANMHAQIKTSLHRLKPDTVPAPCCVPASYNPMVLIQKTDTGVSLQTYDDLLAKDCHCI
# modifications: Disulfide-linked homodimer through GDF15; one protomer is given.
# notes: No His tag is told of for this construct; purified on HSA CaptureSelect resin
# Experiments:
# [1] = target: T1, GFRAL ECD-Fc (GFRAL extracellular …); assay: SPR
# [2] = target: T3, cyno GFRAL ECD-Fc (cynomolgus monkey GFRAL extracellular domain fused to human IgG1 Fc with 6xHis-tag) (cynomolgus monkey); assay: SPR (ProteOn)
# Experimental: Affinity measurements using Surface Plasmon Resonance (SPR) were performed using a ProteOn XPR36 system (Bio-Rad, Hercules, Calif.). A biosensor surface was prepared by coupling anti-Human IgG Fc (Jackson Immuno Research Labs, West Grove, Pa.) to the modified alginate polymer layer surface of a GLC chip (BioRad) using the manufacturer's instructions for amine-coupling chemistry. Approximately 5000 RU (response units) of mAbs were immobilized. The kinetic experiments were performed at 25° C. in running buffer (DPBS+0.01% P20+100 μg/ml BSA). To perform binding kinetic experiment of HSA-GDF15, GFRAL ECD-Fc or isotype control were captured followed by injections of ligands at 5 concentrations (in a 4-fold serial dilution). The association phase was monitored for 3 minutes at 50 μl/min, then followed by 15 minutes of buffer flow (dissociation phase). The chip surface was regenerated with two 18 second pulses of 100 mM H3PO4 (Sigma, St. Louis, Mo.) at 100 μL/min. The collected data were processed using ProteOn Manager software. First, the data was corrected for background using inter-spots. Then, double reference subtraction of the data was performed by using the buffer injection for analyte injections. The kinetic analysis of the data was performed using a Langmuir 1:1 binding model. […]
# [3] = target: T2, Human GFRAL ECD-Fc (human GFRAL …); assay: SPR (ProteOn), GFRAL ECD-Fc captured by anti-human IgG Fc
# Experimental: (§1) Affinity measurements using Surface Plasmon Resonance (SPR) were performed using a ProteOn XPR36 system (Bio-Rad, Hercules, Calif.). A biosensor surface was prepared by coupling anti-Human IgG Fc (Jackson Immuno Research Labs, West Grove, Pa.) to the modified alginate polymer layer surface of a GLC chip (BioRad) using the manufacturer's instructions for amine-coupling chemistry. Approximately 5000 RU (response units) of mAbs were immobilized. The kinetic experiments were performed at 25° C. in running buffer (DPBS+0.01% P20+100 μg/ml BSA). To perform binding kinetic experiment of HSA-GDF15, GFRAL ECD-Fc or isotype control were captured followed by injections of ligands at 5 concentrations (in a 4-fold serial dilution). The association phase was monitored for 3 minutes at 50 μl/min, then followed by 15 minutes of buffer flow (dissociation phase). The chip surface was regenerated with two 18 second pulses of 100 mM H3PO4 (Sigma, St. Louis, Mo.) at 100 μL/min. The collected data were processed using ProteOn Manager software. First, the data was corrected for background using inter-spots. Then, double reference subtraction of the data was performed by using the buffer injection for analyte injections. The kinetic analysis of the data was performed using a Langmuir 1:1 binding model. The result was reported in the format of ka (On-rate), kd (Off-rate) and KD (equilibrium dissociation constant).
# [4] = target: T3, cyno GFRAL ECD-Fc (cynomolgus monkey …); assay: as above
# Experimental: as §1
Binder,Kd [1] [nM],koff [1] [s⁻¹],kon [1] [M⁻¹ s⁻¹],fold difference in binding affinity against human GFRAL [2] [fold],Kd [3] [nM],koff [3] [s⁻¹],kon [3] [M⁻¹ s⁻¹],Kd [4] [nM],koff [4] [s⁻¹],kon [4] [M⁻¹ s⁻¹]
B1,0.0196,0.000197,1.01e+07,,,,,,,
B2,,,,≤ 2,0.0861,0.000156,1.81e+06,0.157,0.000291,1.86e+06

# Reference: patent US20190234935A1 (Janssen / Centocor, published 2019)
